Assay [1] deals with T1, glucagon (GCG) (UniProt P01275 53-81, fluorescently labeled (FAM or TAMRA) in FP assays, site not stated; biotinylated in yeast display). Description: fluorescence polarization titration (FIG. 6a). As to the method: (§1) Fluorescence polarization binding assays were carried out in 96-well plates (Corning 3686), with two-fold serial dilution of designed peptide binders in the presence of 0.5 nM fluorescently labeled peptide targets. Protein and peptide were diluted from their stock concentration into 20 mM Tris-HCl pH 8, 100 mM NaCl, 0.1% v/v Tween 20, and the protein was titrated in 2-fold serial dilutions onto constant peptide. After incubating the peptide and binder for one hour at room temperature, the fluorescence polarization was measured at the excitation and emission wavelengths of the FAM dye (485/530 nm) or the TAMRA dye (530/590 nm), in a Synergy Neo2 multi-mode plate reader. Titrations were conducted in replicate, and the Kd was fitted with SciPy¹⁸. Specifically, curves were fit to N observations of an observed signal, Signalᵢ, at titrated concentrations according to the following equation: […]
T1 sequence (P01275 53-81 limits assumed): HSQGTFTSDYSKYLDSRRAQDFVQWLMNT
In general terms: In fluorescence polarisation assays a small probe gives low polarisation when free and higher when bound to something large.

The target of assay [2] is T2, neuropeptide Y (NPY) (UniProt P01303 29-64, fluorescently labeled (FAM or TAMRA) in FP assays, site not stated; biotinylated in yeast display). Put plainly: fluorescence polarization. As to the method: as §1
The next assay deals with peptide YY (PYY) (UniProt P10082 29-64, limits assumed, fluorescently labeled (FAM or TAMRA) in FP assays, site not stated). Description: fluorescence polarization. As to the method:
as §1

Assay [3] concerns the target T3, Glucagon-like peptide 1 (GLP1) (UniProt P01275 98-128, fluorescently labeled (FAM or TAMRA) in FP assays, site not stated).
T3 peptide (looked up): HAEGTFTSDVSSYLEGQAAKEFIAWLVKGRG
Put plainly: fluorescence polarization titration. As to the method:
as §1

The target of assay [4] is T3, Glucagon-like peptide 1 (GLP1). Put plainly: fluorescence polarization (FIG. 7a). As to the method: as §1
For another assay, the target named is T4, secretin (SCT) (UniProt P09683 28-54, fluorescently labeled (FAM or TAMRA) in FP assays, site not stated).
T4 peptide (looked up): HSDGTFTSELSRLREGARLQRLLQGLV
Description: fluorescence polarization. As to the method: as §1

The target of assay [5] is T1, glucagon (GCG). Put plainly: fluorescence polarization. As to the method: as §1
In assay [6] the target is T5, parathyroid hormone (PTH) peptide (UniProt P01270 32-65, limits assumed, TAMRA label in FP assays (PTH-TAMRA), site not stated; biotinylated in yeast display).
T5 construct: In the NanoBiT assay the peptide was genetically fused to lgBiT; also called PTH-TAMRA peptide
T5 peptide (looked up): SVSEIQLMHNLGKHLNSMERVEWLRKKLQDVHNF
Put plainly: fluorescence polarization, binder titrated onto labeled peptide. As to the method: as §1

For assay [7], the target named is T5, parathyroid hormone (PTH) peptide. Put plainly: FP against the NanoBiT estimate for the starting parametric binder.
Assay [8] addresses T2, neuropeptide Y (NPY). Description: fluorescence polarization titration (FIG. 6b). As to the method:
as §1

The target in assay [9] is T6, Gastric inhibitory polypeptide (GIP) (UniProt P09681 52-93, fluorescently labeled (FAM or TAMRA) in FP assays, site not stated).
T6 peptide (looked up): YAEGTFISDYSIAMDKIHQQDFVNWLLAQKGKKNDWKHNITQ
Put plainly: fluorescence polarization titration. As to the method: as §1

Assay [10] has as its target T6, Gastric inhibitory polypeptide (GIP). Description: fluorescence polarization (FIG. 7b). As to the method:
as §1

For assay [11], the target named is PTH related peptide (PTHrp) (UniProt P12272 37-70, limits assumed, fluorescently labeled (FAM or TAMRA) in FP assays, site not stated). Description: fluorescence polarization. As to the method: as §1
Chain of PTH related peptide (PTHrp) (P12272 37-70 limits assumed): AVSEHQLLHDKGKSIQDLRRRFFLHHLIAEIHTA
Assay [12] addresses T5, parathyroid hormone (PTH) peptide. Put plainly: fluorescence polarization. As to the method: as §1
A further assay has as its target T7, BIM BH3 peptide (Bim) (UniProt O43521 141-166, limits assumed, fluorescently labeled (FAM or TAMRA) in FP assays, site not stated; biotinylated in yeast display).
T7 construct: domain: BH3
Description: fluorescence polarization. As to the method: as §1

“And” between values parts separate entries of the source, which are not always exact repeats. Equal values may be shown once. Some results are limits rather than exact numbers.

Chain of peptide YY (PYY) (P10082 29-64 limits assumed): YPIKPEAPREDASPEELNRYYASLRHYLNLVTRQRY
T7 sequence (O43521 141-166 limits assumed): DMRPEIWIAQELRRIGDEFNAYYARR

B1: GCG_A04 (RFjoint), inpainted GCG binder, SEQ ID NO: 3 (designed binder)
chain: MLDELFSLLNKMFELSDKYRELRKELRKAIESGAPEEELRELLEKMLEIAKKLLELTKELKKLVEDVLKNNPDPVERAKAVLLYAVGVHILYSESSELEVIAERLGFKDIAEKAKEIADKARELKEEVKRKLREIREEVPDPEIRKAAEEAIEMLESNDKRLKEFRKL
In the case of B1, the Kd (in general, the concentration at which binding is half-saturated) with glucagon (GCG) [1] is 231 nM.

B2: NPY_C5 (RF Diffusion/Partial diffusion), partially diffused NPY binder, SEQ ID NO: 9 (designed binder)
chain: GMEERRKELLEKLKKLKEEVVELFRELAQALRDGASKERLEEIRERAEKLAEEAKKVAEELEKLAEGDAVLQLYLAEAYALEAAALTIEAVAAAELGASKEELEKIKEKIEEALKKAEEAMKKALAEAKARGRERLVRLIEEARKEFEKLSKAIKELLEQV
As for B2, the Kd with neuropeptide Y (NPY) [2] is 5.29 nM and 5.6 nM. In the assay with peptide YY (PYY), the binding result is “no binding”.

B3: GLP1_B04 (Sequence threading), SEQ ID NO: 7 (designed binder)
chain: SPEEEARRAAREAERAAREAREAARRLGDEESVRVAERLEREARRAERERDLELARRVLRAAEALRLALEGELLAREQGDELGVVVARMITLAARDSALGRGTPELARLLLRVARALLEGDLEEVVRSLAEIAKREIGTERALLAVEAIKLVALESIEEGDFETAELAIEKLREIAEEFEGTEVAEKAREAIEEIEKKKREAE
Regarding B3, the Kd was 68.8 nM in [3] and under 100 nM in assay [4].

B4: SCT_A02 (Sequence threading), threaded SCT binder, SEQ ID NO: 5 (designed binder)
chain: SEELEERLREARERLEEARERLEEAREEGDLREMARALLEEARAVLEIARVAAEAGDDEALREAARRAGEVIRRAGEVGLRAAEEGDTETIREAMLAILEAQRASAVIALHLARDDPEVAEALRVIERLLRTAERALREGQLEVARLATEAVEALADAILRAREIGRPELVREAARLAEEARRLLEAALEALRAGDEEGARERLARARELIREIRERVRRA
notes: also called SCT design
As for B4, the Kd with secretin (SCT) is 3.95 nM and 2.7 nM. Further, in the assay with glucagon (GCG) [5], the Kd came to 12 nM and the “fold selectivity for SCT over GCG” value is 4 fold.

B5: PTH_B10 (RFjoint), inpainted PTH binder, SEQ ID NO: 2 (designed binder)
chain: SFELLEKLIELSKELYEVAKKYIETGDPELKKKLEEILKKIEEAYKELLESDAHPLEKALAKLILAEAYVVKSFAYISSGKDLEKAQEYLDKAKEILEELLKLLEELKKEETDPEKLEIIEELEKIAEELLKEIEE
notes: Expressed in E. coli, purified on Ni-NTA and by SEC
For B5, in [6], the Kd turned out to be 6.1 nM. Moreover, the “fold improvement in affinity over the starting PTH binder” value in assay [7] was about 1000 fold.

B6: NPY_A9 (RFjoint), inpainted NPY binder, SEQ ID NO: 4 (designed binder)
chain: GAAEKLAELYEKFKALREKALEVLKKAVEALENKADKETLLKLIKELKELAEKFEELAEEFERNAGESTTASLNATAAYMARIGLLAALLALAKAAGVPEEELEEIKRRIEETAKRAIEAAERLKALAEARGDTKHVAVGVEAVRMATELYELAQKIIDAF
As for B6, the Kd with neuropeptide Y (NPY) [8] came out at 3500 nM.

B7: GIP_A08 (Sequence threading), SEQ ID NO: 6 (designed binder)
chain: SPKEKAERLIKEAKEAAEKAKEAAERSGLEEAKKAAEELTKLLEEAAARVAADPEDETKLRALEKIVEAAKEAVKALEVAIESGDEQLIRAALSLVEAAVHLAKALLAKPESPLVDFGFELLKLAAKTLAAYAEGEDVDKIALKLKAISAMAEALRLALAGDLERAARAAEEAVRYAIEAGDKELLRLAAEVAAYIARLAEEAGLEEVARRAREAAERAREAAK
Take B7: the Kd in assay [9] is 6.96 nM; in assay [10], under 100 nM.

B8: PTH_D08, fully diffused PTH binder (RF Diffusion), SEQ ID NO: 10 (designed binder)
chain: MREKLEEMLEEFNEVIDELIEITKEDAPELEELRERAEEAVENERLDELEEILDELEVIILEAMFRDLSAAIEMTKAKNDKEKLKELLKQLEELEKRIKELLERAKKRGNKKIIEKLEKLLKEVEKLKKEIEEYLK
With B8, in [11], the binding result is “no binding”. In [12], the Kd is under 0.5 nM.

B9: PPY_A04 (RF Diffusion_flex), flexibly diffused PYY binder, SEQ ID NO: 12 (designed binder)
chain: GLEEAEKLLEEIFANFEEIVELIKKNIGTERGKKLLKVFVATVDLILARLEQGADLAELAELVKEIAELAKDEEGLEEAEKLVKELTAAR
For B9, the Kd in the assay with peptide YY (PYY) is 24.5 nM.

B10: BIM_E09 (RF Diffusion), fully diffused Bim binder, SEQ ID NO: 11 (designed binder)
chain: EEERKEKREKVRAGLKRAIAELPAEVAARCLALLDDASDEEFIEAVLEVLEAMREALVAMAREGRLDAVRRATSHINEVLVDAAELALEKGREYFRRLCLIVCDMMIELIRLEPEQTPELRRIRERLEEIRRRLE
For B10, the Kd with BIM BH3 peptide (Bim) is under 0.5 nM.

B11: GCG_C09 (RF Diffusion/Partial diffusion), partially diffused GCG binder, SEQ ID NO: 8 (designed binder)
chain: SMEKLAEIMQEIIEAYQEVKDAFFKFIKAVHEGAPEEELKKYLEKMKEALEKMKELLERLEKEAKKVIEENKDKKLELKVLLMLRLAYLLLKVSIELTKIAAEKLGDKELVEELEKESKEVEKKIKELEERIKKLLEEVDDEELKEAYKEVEEMEKEAEKFLEKMRKV
B11: the “fold weaker binding to SCT than to GCG” value with secretin (SCT) amounted to 10 fold. In addition, in the assay with glucagon (GCG) [5], the binding result is “binds”.

The values above are taken from patent publication US20260201015A1 (University of Washington, published 2026).
